Source: patent US20230265151A1, “GIP/GLP1 CO-AGONIST COMPOUNDS” (priority 2020, published 2023)
*1 amine or outer side, *2 acyl side, *3 side chain or, on linkers, in order; H or OH if unused. Where no end group is shown, it is not given here. Side-chain parts run from the residue outwards. [ ]: non-standard residue; d: D form. The star is where a group is joined. Decanoyl(10-(4-HOOC-PhO)) = O=C(O)c1ccc(OCCCCCCCCCC(=O)*)cc1; αMePhe(2-F) = C[C@](N)(Cc1ccccc1F)C(=O)O; γGlu = O=C(O)[C@H](CCC(=O)[*:2])N[*:1]; C14 diacid = O=C(O)CCCCCCCCCCCCC(=O)*; αMeY = C[C@](N)(Cc1ccc(O)cc1)C(=O)O; αMeL = CC(C)C[C@](C)(N)C(=O)O; Orn = NCCC[C@H](N)C(=O)O; AEEA = NCCOCCOCC(=O)O; Aib = CC(C)(N)C(=O)O

Columns and labels:
Test in all cases: cell-based or functional assay
human GIP receptor [1] = molecular target: T1, human GIP receptor (human, UniProt P48546 22-466)
T1 sequence (looked up): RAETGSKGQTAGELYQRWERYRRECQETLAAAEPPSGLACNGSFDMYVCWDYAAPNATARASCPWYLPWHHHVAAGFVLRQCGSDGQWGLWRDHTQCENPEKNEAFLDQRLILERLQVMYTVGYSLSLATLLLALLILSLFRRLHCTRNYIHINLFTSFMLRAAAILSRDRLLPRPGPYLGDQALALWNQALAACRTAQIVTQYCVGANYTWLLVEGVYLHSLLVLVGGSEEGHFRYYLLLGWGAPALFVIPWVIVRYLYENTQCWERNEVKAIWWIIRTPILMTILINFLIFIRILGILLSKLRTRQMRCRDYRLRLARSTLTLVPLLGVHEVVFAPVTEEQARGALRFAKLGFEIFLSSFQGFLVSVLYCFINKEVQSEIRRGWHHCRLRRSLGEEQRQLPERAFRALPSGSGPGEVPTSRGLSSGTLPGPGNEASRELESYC

human glucagon receptor = human glucagon receptor (human, UniProt P47871 26-477)
human GIP receptor [2] = molecular target: T2, human GIP receptor (human, UniProt P48546 22-466); remark: listed apart in the source
T2 sequence (looked up): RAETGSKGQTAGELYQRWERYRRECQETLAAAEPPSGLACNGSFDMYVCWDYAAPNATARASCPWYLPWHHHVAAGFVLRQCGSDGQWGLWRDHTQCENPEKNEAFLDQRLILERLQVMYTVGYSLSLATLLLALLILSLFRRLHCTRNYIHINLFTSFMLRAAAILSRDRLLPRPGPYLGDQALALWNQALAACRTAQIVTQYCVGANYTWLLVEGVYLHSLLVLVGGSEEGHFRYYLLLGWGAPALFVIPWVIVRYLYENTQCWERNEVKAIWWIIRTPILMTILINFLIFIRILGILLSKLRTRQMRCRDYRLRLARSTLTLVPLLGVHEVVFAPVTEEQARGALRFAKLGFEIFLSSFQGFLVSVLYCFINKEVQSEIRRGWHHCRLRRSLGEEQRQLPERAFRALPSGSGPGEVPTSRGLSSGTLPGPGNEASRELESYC

human GLP-1 receptor [3] = molecular target: human GLP-1 receptor (human, UniProt P43220 24-463)
human GLP-1 receptor [4] = molecular target: human GLP-1 receptor (human, UniProt P43220 24-463); remark: listed apart in the source
human GIP receptor [5] = molecular target: T3, human GIP receptor (human, UniProt P48546 22-466); remark: listed apart in the source
T3 sequence (looked up): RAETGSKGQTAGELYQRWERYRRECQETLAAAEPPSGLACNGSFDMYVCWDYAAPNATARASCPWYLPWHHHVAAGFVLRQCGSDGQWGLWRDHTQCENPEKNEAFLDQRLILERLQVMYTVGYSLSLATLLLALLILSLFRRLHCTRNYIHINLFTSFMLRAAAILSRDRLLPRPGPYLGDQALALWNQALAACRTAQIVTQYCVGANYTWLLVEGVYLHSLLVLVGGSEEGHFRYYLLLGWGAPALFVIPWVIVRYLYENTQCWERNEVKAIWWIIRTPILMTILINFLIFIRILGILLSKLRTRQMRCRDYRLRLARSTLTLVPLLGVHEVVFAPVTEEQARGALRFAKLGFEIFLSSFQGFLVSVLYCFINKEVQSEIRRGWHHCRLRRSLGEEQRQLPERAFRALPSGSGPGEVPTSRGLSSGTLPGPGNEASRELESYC

human GLP-1 receptor [6] = molecular target: human GLP-1 receptor (human, UniProt P43220 24-463); remark: listed apart in the source

| Binder | EC50, cAMP (human GIP receptor [1]) [nM] | EC50, cAMP (human glucagon receptor) [nM] | EC50, cAMP (human GLP-1 receptor [4]) [nM] | other results |
| --- | --- | --- | --- | --- |
| YXEGTXTSDXSIXLDXKAQXEFIXXLIEGGKSSGAPPPS (Aib2, αMeF(2F)6, 4Pal10, αMeL13, Orn16, Aib20, D-Glu24, αMeY25, K17 and K31: K(AEEA3-(γ-Glu)-CO-(CH2)14-CH3), C-terminal NH2) [Example 31] | 0.00157 | > 9950 |  |  |
| YXEGTXTSDXXIXLDXQAQXEFIKXLIKGGPSSGAPPPS (Y-Aib-EGT-αMeF(2F)-TSD-4Pal-Aib-I-αMeL-LD-Orn-QAQ-Aib-EFIK((2-[2-(2-Amino-ethoxy)-ethoxy]-acetyl)2-(γ-Glu)-(10-(4-carboxyphenoxy)decanoyl))-αMeY-LIK((2-[2-(2-Amino-ethoxy)-ethoxy]-acetyl)2-(γ-Glu)-(10-(4-carboxyphenoxy)decanoyl))GGPSSGAPPPS-NH2) [Example 403] |  |  |  | cAMP EC50 (1.0% HSA) (human GIP receptor [2]): 0.711 nM; cAMP Emax (1.0% HSA) (human GIP receptor [2]): 91.7%; cAMP EC50 (1.0% HSA) (human GLP-1 receptor [3]): 7.31 nM |
| YXEGTXTSDKSIXLDXKAQXEFIXXLIEGGPSSGAPPPS (Aib2, αMeF(2F)6, αMeL13, Orn16, Aib20, D-Glu24, αMeY25, K10 and K17: K(AEEA2-(γ-Glu)-CO-(CH2)12-CO2H), C-terminal NH2) [Example 27] | 0.116 | > 9950 | 2.77 | Emax, cAMP (human GIP receptor [1]): 88.8% |
| YXEGTXTSDXXIXLDXQAQXEFIKXLIKGGPSSGAPPPS (Y-Aib-EGT-αMeF(2F)-TSD-4Pal-Aib-I-αMeL-LD-Orn-QAQ-Aib-EFIK((2-[2-(2-Amino-ethoxy)-ethoxy]-acetyl)3-(γ-Glu)-CO-(CH2)12-CO2H)-αMeY-LIK((2-[2-(2-Amino-ethoxy)-ethoxy]-acetyl)3-(γ-Glu)-CO-(CH2)12-CO2H)GGPSSGAPPPS-NH2) [Example 460] |  |  |  | cAMP EC50 (1.0% HSA) (human GIP receptor [2]): 0.506 nM; cAMP EC50 (1.0% HSA) (human GLP-1 receptor [3]): 6.31 nM |
| YXEGTXTSDXSIXLDXKGQXEFIXXLIEGGKSSGAPPPS (Aib2, αMeF(2F)6, 4Pal10, αMeL13, Orn16, Aib20, D-Glu24, αMeY25, K17 and K31: K(AEEA2-(γ-Glu)-CO-(CH2)12-CO2H), C-terminal NH2) [Example 102] |  | > 9950 | 19.1 |  |
| YXEGTXTSDXSKXLDXKAQXEFIXXLIEGGPSSGAPPPS (Aib2, αMeF(2F)6, 4Pal10, αMeL13, Orn16, Aib20, D-Glu24, αMeY25, K12 and K17: K(AEEA2-(γ-Glu)-CO-(CH2)12-CO2H), C-terminal NH2) [Example 28] | 0.0554 | > 9950 | 2.65 | Emax, cAMP (human GIP receptor [1]): 95.4% |
| YXEGTXTSDXSIXLDXKAQXEFIXXLIEGGKSSGAPPPS (Aib2, αMeF(2F)6, Bzt10, αMeL13, Orn16, Aib20, D-Glu24, αMeY25, K17 and K31: K(AEEA2-(γ-Glu)-CO-(CH2)12-CO2H), C-terminal NH2) [Example 142] | 0.0317 | > 9950 |  |  |
| YXEGTXTSDXSIXLDXKAQXEFIXXLIEGGKSSGAPPPS (Aib2, αMeF(2F)6, 4Pal10, αMeL13, Orn16, Aib20, D-Glu24, αMeY25, K17 and K31: K(AEEA2-(γ-Glu)-CO-(CH2)10-CO2H), C-terminal NH2) [Example 6] | 0.0477 | > 9950 | 2.3 |  |
| YXEGTXTSDXSIXLDXKAQXEFIXXLIEGGPSSGAPPPSK (Aib2, αMeF(2F)6, 4Pal10, αMeL13, Orn16, Aib20, D-Glu24, αMeY25, K17 and K40: K(AEEA2-(γ-Glu)-CO-(CH2)12-CO2H), C-terminal NH2) [Example 19] | 0.0158 | > 9950 | 1.34 | Emax, cAMP (human GIP receptor [1]): 96.6% |
| YXEGTXTSDXSIXLDXKAQXEFIXXLIEGGPSSGAPPPSK (Aib2, αMeF(2F)6, 4Pal10, αMeL13, Orn16, Aib20, D-Glu24, αMeY25, K17 and K40: K(AEEA2-(γ-Glu)-CO-(CH2)14-CH3), C-terminal NH2) [Example 25] | 0.00243 | > 9950 | 0.00426 |  |
| Y[Aib]EGT[αMePhe(2-F)]TSDV[Aib]I[αMeL]LD[Orn]IAQ[Aib]EFIK([AEEA-AEEA-AEEA-γGlu-Decanoyl(10-(4-HOOC-PhO))])[αMeY]LIK([AEEA-AEEA-AEEA-γGlu-Decanoyl(10-(4-HOOC-PhO))])GGPSSGAPPPS-NH2 [Example 347] |  |  |  | cAMP EC50 (1.0% HSA) (human GIP receptor [5]): 7.27 nM; cAMP Emax (1.0% HSA) (human GIP receptor [5]): 84.6%; cAMP EC50 (1.0% HSA) (human GLP-1 receptor [6]): 51.7 nM |
| Y[Aib]EGT[αMePhe(2-F)]TSDV[Aib]I[αMeL]LD[Orn]IAQ[Aib]EFIK([AEEA-AEEA-AEEA-γGlu-C14 diacid])[αMeY]LIK([AEEA-AEEA-AEEA-γGlu-C14 diacid])GGPSSGAPPPS-NH2 (N-terminus assumed; SMILES CC[C@H](C)[C@H](NC(=O)[C@H](CCCN)NC(=O)[C@H](CC(=O)O)NC(=O)[C@H](CC(C)C)NC(=O)[C@](C)(CC(C)C)NC(=O)[C@@H](NC(=O)C(C)(C)NC(=O)[C@@H](NC(=O)[C@H](CC(=O)O)NC(=O)[C@H](CO)NC(=O)[C@@H](NC(=O)[C@](C)(Cc1ccccc1F)NC(=O)[C@@H](NC(=O)CNC(=O)[C@H](CCC(=O)O)NC(=O)C(C)(C)NC(=O)[C@@H](N)Cc1ccc(O)cc1)[C@@H](C)O)[C@@H](C)O)C(C)C)[C@@H](C)CC)C(=O)N[C@@H](C)C(=O)N[C@@H](CCC(N)=O)C(=O)NC(C)(C)C(=O)N[C@@H](CCC(=O)O)C(=O)N[C@@H](Cc1ccccc1)C(=O)N[C@H](C(=O)N[C@@H](CCCCNC(=O)COCCOCCNC(=O)COCCOCCNC(=O)COCCOCCNC(=O)CC[C@H](NC(=O)CCCCCCCCCCCCC(=O)O)C(=O)O)C(=O)N[C@@](C)(Cc1ccc(O)cc1)C(=O)N[C@@H](CC(C)C)C(=O)N[C@H](C(=O)N[C@@H](CCCCNC(=O)COCCOCCNC(=O)COCCOCCNC(=O)COCCOCCNC(=O)CC[C@H](NC(=O)CCCCCCCCCCCCC(=O)O)C(=O)O)C(=O)NCC(=O)NCC(=O)N1CCC[C@H]1C(=O)N[C@@H](CO)C(=O)N[C@@H](CO)C(=O)NCC(=O)N[C@@H](C)C(=O)N1CCC[C@H]1C(=O)N1CCC[C@H]1C(=O)N1CCC[C@H]1C(=O)N[C@@H](CO)C(N)=O)[C@@H](C)CC)[C@@H](C)CC) [Example 344] |  |  |  | cAMP EC50 (1.0% HSA) (human GIP receptor [5]): 6.78 nM; cAMP Emax (1.0% HSA) (human GIP receptor [5]): 87.3%; cAMP EC50 (1.0% HSA) (human GLP-1 receptor [6]): 48.3 nM |
| Y[Aib]EGT[αMePhe(2-F)]TSDV[Aib]I[αMeL]LD[Orn]IAQ[Aib]EFIK([AEEA-γGlu-Decanoyl(10-(4-HOOC-PhO))])[αMeY]LIK([AEEA-γGlu-Decanoyl(10-(4-HOOC-PhO))])GGPSSGAPPPS-NH2 [Example 381] |  |  |  | cAMP EC50 (1.0% HSA) (human GIP receptor [2]): 28 nM; cAMP EC50 (1.0% HSA) (human GLP-1 receptor [3]): 153 nM |
